Measurements reported in publication PMC11461855 (Nature Communications, 2024).

Target: T1, mMED15-FLAG (Flag-tagged mouse Med15) (mouse, UniProt Q924H2 1-789)
T1 sequence: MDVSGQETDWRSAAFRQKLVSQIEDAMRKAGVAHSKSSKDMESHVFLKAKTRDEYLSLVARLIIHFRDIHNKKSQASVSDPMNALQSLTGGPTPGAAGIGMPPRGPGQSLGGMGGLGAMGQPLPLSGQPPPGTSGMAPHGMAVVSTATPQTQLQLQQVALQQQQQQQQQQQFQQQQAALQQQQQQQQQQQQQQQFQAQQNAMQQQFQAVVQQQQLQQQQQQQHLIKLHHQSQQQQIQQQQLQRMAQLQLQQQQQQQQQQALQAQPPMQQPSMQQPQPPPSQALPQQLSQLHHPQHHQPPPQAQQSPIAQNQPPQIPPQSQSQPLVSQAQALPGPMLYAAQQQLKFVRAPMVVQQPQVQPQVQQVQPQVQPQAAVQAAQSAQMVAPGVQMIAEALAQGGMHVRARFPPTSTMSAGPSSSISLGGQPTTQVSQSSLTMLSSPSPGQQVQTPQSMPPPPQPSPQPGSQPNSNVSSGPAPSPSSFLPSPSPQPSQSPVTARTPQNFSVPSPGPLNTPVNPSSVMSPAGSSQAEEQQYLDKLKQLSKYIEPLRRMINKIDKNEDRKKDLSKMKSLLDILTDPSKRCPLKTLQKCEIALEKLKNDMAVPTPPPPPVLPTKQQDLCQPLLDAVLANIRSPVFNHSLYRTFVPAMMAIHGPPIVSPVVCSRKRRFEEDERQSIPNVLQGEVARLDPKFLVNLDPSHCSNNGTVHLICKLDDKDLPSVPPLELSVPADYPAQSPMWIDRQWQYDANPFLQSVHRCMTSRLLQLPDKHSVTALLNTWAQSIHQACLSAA
Assay: pull-down

B1: HA-mNKX6.1 (HA-tagged full-length mouse Nkx6-1) (natural protein)
chain: MLAVGAMEGPRQSAFLLSSPPLAALHSMAEMKTPLYPAAYPPLPTGPPSSSSSSSSSSSPSPPLGSHNPGGLKPPAAGGLSSLGSPPQQLSAATPHGINDILSRPSMPVASGAALPSASPSGSSSSSSSSASATSASAAAAAAAAAAAAAASSPAGLLAGLPRFSSLSPPPPPPGLYFSPSAAAVAAVGRYPKPLAELPGRTPIFWPGVMQSPPWRDARLACTPHQGSILLDKDGKRKHTRPTFSGQQIFALEKTFEQTKYLAGPERARLAYSLGMTESQVKVWFQNRRTKWRKKHAAEMATAKKKQDSETERLKGTSENEEDDDDYNKPLDPNSDDEKITQLLKKHKSSGGSLLLHASEAEGSS
- binding result: binds
